Consider two substances from US20240010701A1.

In assay [1] the target is hFcγIIIa (human) (UniProt P08637). Kind of assay: SPR (Biacore 8K), 25° C, antibody captured on nectin-4-coated chip, receptor ECD as analyte, steady-state analysis. Background: Surface plasmon resonance follows binding to a sensor surface in real time, without labels.
Assay [2] addresses FcγIIIaV158F (human) (UniProt P08637). The description is as above.
Assay [3] has as its target hFcγIIIa (human) (UniProt P08637). Briefly: SPR (Biacore 8K), 25° C, ADC captured on nectin-4-coated chip, receptor ECD as analyte, steady-state analysis.
In assay [4] the target is FcγIIIaV158F (human) (UniProt P08637). The description is as above.

By Kd is commonly meant the concentration at which binding is half-saturated. Read a high Kd as lower affinity. Regarding “DRUG B (enfortumab similar antibody that specifically binds human nectin-4)”, the Kd came to 0.316 µM in the assay with hFcγIIIa (human) [1] and 0.983 µM with FcγIIIaV158F (human) [2].

“DRUG C (enfortumab vedotin similar antibody-drug conjugate)”: the results for the Kd with hFcγIIIa (human) [3] and with FcγIIIaV158F (human) [4] were 0.429 µM and 1.21 µM, respectively.
